Publication PMC2134296

biological target: adenomatous polyposis coli (APC) protein (endogenous, MDCK cells) (dog (endogenous in MDCK)); assay: co-IP

fold coimmunoprecipitated with APC protein relative to endogenous β-catenin [fold] | Substance
3 | ΔN90 β-catenin (KT3-tagged, NH2-terminal 90 amino acids deleted) (from UniProt Q02248 91-781) (domain or fragment)
3 | ΔN131 β-catenin (KT3-tagged, NH2-terminal 131 amino acids deleted) (from UniProt Q02248 132-781) (domain or fragment)
3 | ΔN151 β-catenin (KT3-tagged, NH2-terminal 151 amino acids deleted) (from UniProt Q02248 152-781) (domain or fragment)
